# From IntAct's records for PubMed 17719540
# B1: Type 3 secretion system translocon protein SctE (Shigella flexneri), P18011 (parent)
# chain: MHNVSTTTTGFPLAKILTSTELGDNTIQAANDAANKLFSLTIADLTANQNINTTNAHSTSNILIPELKAPKSLNASSQLTLLIGNLIQILGEKSLTALTNKITAWKSQQQARQQKNLEFSDKINTLLSETEGLTRDYEKQINKLKNADSKIKDLENKINQIQTRLSELDPESPEKKKLSREEIQLTIKKDAAVKDRTLIEQKTLSIHSKLTDKSMQLEKEIDSFSAFSNTASAEQLSTQQKSLTGLASVTQLMATFIQLVGKNNEESLKNDLALFQSLQESRKTEMERKSDEYAAEVRKAEELNRVMGCVGKILGALLTIVSVVAAAFSGGASLALAAVGLALMVTDAIVQAATGNSFMEQALNPIMKAVIEPLIKLLSDAFTKMLEGLGVDSKKAKMIGSILGAIAGALVLVAAVVLVATVGKQAAAKLAENIGKIIGKTLTDLIPKFLKNFSSQLDDLITNAVARLNKFLGAAGDEVISKQIISTHLNQAVLLGESVNSATQAGGSVASAVFQNSASTNLADLTLSKYQVEQLSKYISEAIEKFGQLQEVIADLLASMSNSQANRTDVAKAILQQTTA
# Variants of: B1
# Settings: with md2l2_human MAD2L2, Q9UI95
# Sequence of md2l2_human MAD2L2, Q9UI95 (Q9UI95 whole entry): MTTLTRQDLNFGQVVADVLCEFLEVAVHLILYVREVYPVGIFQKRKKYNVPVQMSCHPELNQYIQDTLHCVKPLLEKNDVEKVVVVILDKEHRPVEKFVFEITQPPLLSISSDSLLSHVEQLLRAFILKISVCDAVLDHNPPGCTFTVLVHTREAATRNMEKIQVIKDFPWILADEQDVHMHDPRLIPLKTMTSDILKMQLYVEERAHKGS
row,Variant,effect of a mutation on the interaction
1,N61A,decreasing interaction

# Variants of: B1
# Settings: with ipgc_shifl ipgC
row,Variant,effect of a mutation on the interaction
1,L67A,decreasing interaction
